# Assay results taken from patent publication US20190169246A1.
# Biological target: ApoER2 of primary neuronal culture from embryonic day 17 mice (mouse) (UniProt Q924X6)
# Assay: cell-based or functional assay
# Sequence of ApoER2 of primary neuronal culture from embryonic day 17 mice (mouse) (Q924X6 29-996): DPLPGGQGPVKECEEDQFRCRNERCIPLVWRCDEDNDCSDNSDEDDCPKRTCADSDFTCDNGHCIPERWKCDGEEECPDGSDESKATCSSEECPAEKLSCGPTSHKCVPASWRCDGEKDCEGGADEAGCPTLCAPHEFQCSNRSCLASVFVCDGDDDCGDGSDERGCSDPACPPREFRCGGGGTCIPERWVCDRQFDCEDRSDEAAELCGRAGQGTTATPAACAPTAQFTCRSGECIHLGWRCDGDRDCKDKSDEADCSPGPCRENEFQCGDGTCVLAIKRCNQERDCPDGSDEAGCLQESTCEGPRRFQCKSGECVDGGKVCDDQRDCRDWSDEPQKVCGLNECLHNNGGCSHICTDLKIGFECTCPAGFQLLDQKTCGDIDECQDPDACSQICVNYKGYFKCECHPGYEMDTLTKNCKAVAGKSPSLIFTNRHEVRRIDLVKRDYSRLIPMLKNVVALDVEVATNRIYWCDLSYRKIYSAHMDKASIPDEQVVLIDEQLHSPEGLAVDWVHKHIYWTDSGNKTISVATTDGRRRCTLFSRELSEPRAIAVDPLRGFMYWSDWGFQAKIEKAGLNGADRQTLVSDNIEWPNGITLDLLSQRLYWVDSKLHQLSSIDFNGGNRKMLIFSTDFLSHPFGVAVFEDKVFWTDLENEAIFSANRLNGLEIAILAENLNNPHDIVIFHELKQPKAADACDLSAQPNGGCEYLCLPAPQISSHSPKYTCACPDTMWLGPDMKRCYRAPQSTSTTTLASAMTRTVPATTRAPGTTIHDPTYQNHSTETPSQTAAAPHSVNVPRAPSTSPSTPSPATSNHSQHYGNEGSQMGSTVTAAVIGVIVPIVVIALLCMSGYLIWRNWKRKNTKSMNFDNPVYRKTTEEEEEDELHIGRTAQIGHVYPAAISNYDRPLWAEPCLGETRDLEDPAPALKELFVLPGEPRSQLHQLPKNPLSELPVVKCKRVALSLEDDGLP
row,Substance,"levels of phosphorylated ERK to total ERK, primary neurons, 60 minutes (ratio pERK/total ERK)"
1,mouse Reelin N terminal through repeat R2 (from UniProt Q60841 27-1221) (ligand),0.53
2,"Recombinant, human Reelin protein, R3 fragment conjugated to the R6 fragment (Reelin protein fragment R3+R6) (from UniProt P78509 1-2618) (ligand)",2
3,mouse Reelin repeats R3 through 6 (from UniProt Q60841 1222-2661) (ligand),1.15
4,full length Reelin consisting of the full length sequence and all of the naturally occurring fragments (ligand),2.5
5,"Recombinant, human Reelin protein, R3 fragment conjugated to the R5 fragment (Reelin protein fragment R3+R5) (from UniProt P78509 1-2270) (ligand)",2.22
